B1: Thioredoxin (Synechocystis sp. (strain PCC 6803 / Kazusa)), P52231 (parent)
chain: MSATPQVSDASFKEDVLDSELPVLVDFWAPWCGPCRMVAPVVDEISQQYEGKVKVVKLNTDENPNTASQYGIRSIPTLMIFKGGQRVDMVVGAVPKTTLASTLEKYL
partner: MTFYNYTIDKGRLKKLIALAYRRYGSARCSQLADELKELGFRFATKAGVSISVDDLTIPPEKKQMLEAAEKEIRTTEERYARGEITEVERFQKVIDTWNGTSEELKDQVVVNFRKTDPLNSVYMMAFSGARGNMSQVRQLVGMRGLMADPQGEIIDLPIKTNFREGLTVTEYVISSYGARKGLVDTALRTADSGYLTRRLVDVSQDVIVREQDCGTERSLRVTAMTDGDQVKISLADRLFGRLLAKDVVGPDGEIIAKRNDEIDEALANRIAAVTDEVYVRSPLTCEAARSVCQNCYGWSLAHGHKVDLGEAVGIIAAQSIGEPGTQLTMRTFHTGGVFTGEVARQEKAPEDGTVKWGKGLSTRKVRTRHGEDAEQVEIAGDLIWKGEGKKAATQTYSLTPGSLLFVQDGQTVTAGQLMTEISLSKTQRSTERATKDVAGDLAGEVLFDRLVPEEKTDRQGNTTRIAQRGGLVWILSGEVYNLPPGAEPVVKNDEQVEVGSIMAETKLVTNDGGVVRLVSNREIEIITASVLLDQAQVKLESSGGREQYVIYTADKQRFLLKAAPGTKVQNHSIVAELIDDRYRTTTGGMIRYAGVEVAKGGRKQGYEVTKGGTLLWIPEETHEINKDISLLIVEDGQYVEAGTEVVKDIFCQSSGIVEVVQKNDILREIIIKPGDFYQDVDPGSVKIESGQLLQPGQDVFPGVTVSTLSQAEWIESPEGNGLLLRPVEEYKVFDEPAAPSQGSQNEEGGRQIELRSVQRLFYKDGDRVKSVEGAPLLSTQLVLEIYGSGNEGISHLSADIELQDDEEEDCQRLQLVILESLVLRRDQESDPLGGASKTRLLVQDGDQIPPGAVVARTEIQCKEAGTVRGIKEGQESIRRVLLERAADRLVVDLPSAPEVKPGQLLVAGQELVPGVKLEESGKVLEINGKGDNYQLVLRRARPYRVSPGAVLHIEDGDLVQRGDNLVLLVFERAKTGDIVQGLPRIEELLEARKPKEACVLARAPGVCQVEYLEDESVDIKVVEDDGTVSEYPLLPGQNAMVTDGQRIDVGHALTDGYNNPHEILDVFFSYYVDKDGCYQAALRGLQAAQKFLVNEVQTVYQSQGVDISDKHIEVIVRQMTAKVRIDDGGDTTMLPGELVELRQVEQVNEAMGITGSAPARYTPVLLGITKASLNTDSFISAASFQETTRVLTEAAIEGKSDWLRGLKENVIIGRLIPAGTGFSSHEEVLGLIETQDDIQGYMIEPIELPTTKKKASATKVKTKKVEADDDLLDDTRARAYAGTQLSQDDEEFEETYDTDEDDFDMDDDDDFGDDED
B2: Thioredoxin (Synechocystis sp. (strain PCC 6803 / Kazusa)), P52231 (parent)
chain: B1 chain
partner: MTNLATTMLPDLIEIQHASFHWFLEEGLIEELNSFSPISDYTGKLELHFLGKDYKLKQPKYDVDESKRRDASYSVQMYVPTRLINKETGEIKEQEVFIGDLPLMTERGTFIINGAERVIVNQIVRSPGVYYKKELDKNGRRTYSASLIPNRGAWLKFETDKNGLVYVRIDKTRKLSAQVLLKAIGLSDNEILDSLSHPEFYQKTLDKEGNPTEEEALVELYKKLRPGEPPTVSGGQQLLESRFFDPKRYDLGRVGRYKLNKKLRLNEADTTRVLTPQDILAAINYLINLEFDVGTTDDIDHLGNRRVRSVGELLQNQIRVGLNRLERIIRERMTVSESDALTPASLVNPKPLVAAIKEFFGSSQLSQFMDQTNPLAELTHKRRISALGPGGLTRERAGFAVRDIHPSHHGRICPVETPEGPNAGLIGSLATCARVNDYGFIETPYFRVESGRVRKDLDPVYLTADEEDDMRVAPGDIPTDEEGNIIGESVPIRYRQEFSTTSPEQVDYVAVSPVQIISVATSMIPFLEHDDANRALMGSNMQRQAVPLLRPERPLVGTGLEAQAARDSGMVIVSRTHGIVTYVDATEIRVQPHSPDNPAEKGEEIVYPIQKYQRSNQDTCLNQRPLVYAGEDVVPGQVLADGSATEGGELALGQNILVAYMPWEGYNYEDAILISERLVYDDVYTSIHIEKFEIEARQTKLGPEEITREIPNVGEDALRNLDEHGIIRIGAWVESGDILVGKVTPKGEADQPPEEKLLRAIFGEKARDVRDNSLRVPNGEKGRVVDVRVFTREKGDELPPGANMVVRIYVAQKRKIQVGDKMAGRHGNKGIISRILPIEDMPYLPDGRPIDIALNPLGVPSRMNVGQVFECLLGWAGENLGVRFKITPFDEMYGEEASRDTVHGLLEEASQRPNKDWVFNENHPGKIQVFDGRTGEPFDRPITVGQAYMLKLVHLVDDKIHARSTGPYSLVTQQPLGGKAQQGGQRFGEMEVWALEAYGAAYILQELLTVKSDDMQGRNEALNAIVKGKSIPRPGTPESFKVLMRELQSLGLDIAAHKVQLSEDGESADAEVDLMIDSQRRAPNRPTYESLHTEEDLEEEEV
B3: Thioredoxin (Synechocystis sp. (strain PCC 6803 / Kazusa)), P52231 (parent)
chain: B1 chain
partner: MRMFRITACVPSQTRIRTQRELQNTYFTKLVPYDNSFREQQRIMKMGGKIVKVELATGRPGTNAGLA
B4: Thioredoxin (Synechocystis sp. (strain PCC 6803 / Kazusa)), P52231 (parent)
chain: B1 chain
partner: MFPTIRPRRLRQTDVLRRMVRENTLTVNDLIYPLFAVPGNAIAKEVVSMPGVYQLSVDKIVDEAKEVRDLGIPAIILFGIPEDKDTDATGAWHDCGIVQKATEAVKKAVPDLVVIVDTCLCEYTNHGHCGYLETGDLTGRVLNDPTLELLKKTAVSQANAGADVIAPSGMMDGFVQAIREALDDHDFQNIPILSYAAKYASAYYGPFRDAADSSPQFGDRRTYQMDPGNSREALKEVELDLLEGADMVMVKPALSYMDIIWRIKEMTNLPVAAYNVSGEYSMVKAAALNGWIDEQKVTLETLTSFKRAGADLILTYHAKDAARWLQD
B5: Thioredoxin (Synechocystis sp. (strain PCC 6803 / Kazusa)), P52231 (parent)
chain: B1 chain
partner: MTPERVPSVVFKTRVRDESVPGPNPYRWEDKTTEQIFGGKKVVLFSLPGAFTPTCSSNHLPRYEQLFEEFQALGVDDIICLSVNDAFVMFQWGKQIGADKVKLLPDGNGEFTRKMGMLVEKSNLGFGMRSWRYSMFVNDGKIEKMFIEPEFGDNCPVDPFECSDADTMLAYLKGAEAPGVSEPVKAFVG
B6: Thioredoxin (Synechocystis sp. (strain PCC 6803 / Kazusa)), P52231 (parent)
chain: B1 chain
partner: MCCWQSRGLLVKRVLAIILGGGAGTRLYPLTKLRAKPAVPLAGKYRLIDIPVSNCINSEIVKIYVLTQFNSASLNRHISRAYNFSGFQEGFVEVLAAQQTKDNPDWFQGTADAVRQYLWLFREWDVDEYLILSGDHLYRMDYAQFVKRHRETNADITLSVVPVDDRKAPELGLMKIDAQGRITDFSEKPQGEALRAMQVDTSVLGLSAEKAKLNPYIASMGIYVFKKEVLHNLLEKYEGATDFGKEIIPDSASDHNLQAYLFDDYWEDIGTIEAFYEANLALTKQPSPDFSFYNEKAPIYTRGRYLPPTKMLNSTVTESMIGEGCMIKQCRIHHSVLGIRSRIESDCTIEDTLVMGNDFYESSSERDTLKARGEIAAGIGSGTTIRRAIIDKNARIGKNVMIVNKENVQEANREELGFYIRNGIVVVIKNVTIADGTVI
B7: Thioredoxin (Synechocystis sp. (strain PCC 6803 / Kazusa)), P52231 (parent)
chain: B1 chain
partner: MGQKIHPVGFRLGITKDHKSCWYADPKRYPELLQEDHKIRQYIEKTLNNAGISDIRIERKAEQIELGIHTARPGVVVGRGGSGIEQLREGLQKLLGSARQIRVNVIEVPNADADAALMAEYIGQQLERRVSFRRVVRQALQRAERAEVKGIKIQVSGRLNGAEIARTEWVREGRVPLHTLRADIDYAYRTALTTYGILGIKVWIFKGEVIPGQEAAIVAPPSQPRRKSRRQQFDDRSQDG
B8: Thioredoxin (Synechocystis sp. (strain PCC 6803 / Kazusa)), P52231 (parent)
chain: B1 chain
partner: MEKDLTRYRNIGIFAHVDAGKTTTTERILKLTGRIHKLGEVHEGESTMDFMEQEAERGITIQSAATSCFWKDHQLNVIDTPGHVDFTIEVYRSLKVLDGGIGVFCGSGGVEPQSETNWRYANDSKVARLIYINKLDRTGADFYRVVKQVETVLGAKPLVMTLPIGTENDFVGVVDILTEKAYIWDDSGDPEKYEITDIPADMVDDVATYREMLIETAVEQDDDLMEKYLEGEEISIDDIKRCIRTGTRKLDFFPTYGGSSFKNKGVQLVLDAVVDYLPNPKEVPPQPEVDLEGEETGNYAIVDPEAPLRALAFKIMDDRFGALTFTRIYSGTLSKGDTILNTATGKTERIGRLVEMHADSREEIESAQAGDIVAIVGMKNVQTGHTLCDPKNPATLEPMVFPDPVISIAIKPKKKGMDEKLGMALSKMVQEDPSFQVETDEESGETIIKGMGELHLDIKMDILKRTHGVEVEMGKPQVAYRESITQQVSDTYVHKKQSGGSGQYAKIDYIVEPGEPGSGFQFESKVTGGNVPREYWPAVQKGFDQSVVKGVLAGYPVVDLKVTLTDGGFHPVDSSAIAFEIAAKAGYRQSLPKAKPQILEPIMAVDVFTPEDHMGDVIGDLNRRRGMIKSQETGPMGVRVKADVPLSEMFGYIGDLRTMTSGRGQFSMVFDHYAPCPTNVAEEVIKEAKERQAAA
B9: Thioredoxin (Synechocystis sp. (strain PCC 6803 / Kazusa)), P52231 (parent)
chain: B1 chain
partner: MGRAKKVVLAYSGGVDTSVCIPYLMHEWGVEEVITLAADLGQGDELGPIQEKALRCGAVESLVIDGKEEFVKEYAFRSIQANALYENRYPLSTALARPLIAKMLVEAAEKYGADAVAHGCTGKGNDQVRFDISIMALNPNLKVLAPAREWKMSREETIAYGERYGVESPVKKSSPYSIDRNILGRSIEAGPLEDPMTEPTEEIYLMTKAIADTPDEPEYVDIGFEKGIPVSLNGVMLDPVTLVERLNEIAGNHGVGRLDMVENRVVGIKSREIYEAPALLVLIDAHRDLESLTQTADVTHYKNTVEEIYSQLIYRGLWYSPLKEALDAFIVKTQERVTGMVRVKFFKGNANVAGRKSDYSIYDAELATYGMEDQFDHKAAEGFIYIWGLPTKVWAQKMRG

Variants of B1 are the subject of the first experiment. To be noted: with rpoc2_syny3 rpoC2, P73334.
Consider MSATPQVSDASFKEDVLDSELPVLVDFWAPWCGPSRMVAPVVDEISQQYEGKVKVVKLNTDENPNTASQYGIRSIPTLMIFKGGQRVDMVVGAVPKTTLASTLEKYL, for which the “effect of a mutation on the interaction” value is “increasing interaction”.

In another experiment the parent is B2. To be noted: with rpob_syny3 rpoB.
Consider MSATPQVSDASFKEDVLDSELPVLVDFWAPWCGPSRMVAPVVDEISQQYEGKVKVVKLNTDENPNTASQYGIRSIPTLMIFKGGQRVDMVVGAVPKTTLASTLEKYL, for which the “effect of a mutation on the interaction” value is given as “increasing interaction”.

The variants in a further experiment derive from B3. To be noted: with pyc1_syny3 apcC.
As to MSATPQVSDASFKEDVLDSELPVLVDFWAPWCGPSRMVAPVVDEISQQYEGKVKVVKLNTDENPNTASQYGIRSIPTLMIFKGGQRVDMVVGAVPKTTLASTLEKYL, the “effect of a mutation on the interaction” value is reported as “increasing interaction”.

A further experiment covers variants of B4. To be noted: with hem2_syny3 hemB.
For the variant MSATPQVSDASFKEDVLDSELPVLVDFWAPWCGPSRMVAPVVDEISQQYEGKVKVVKLNTDENPNTASQYGIRSIPTLMIFKGGQRVDMVVGAVPKTTLASTLEKYL, the “effect of a mutation on the interaction” value is “increasing interaction”.

A further experiment covers variants of B5. Particulars: with prx5_syny3 prx5, P73728.
For the variant MSATPQVSDASFKEDVLDSELPVLVDFWAPWCGPSRMVAPVVDEISQQYEGKVKVVKLNTDENPNTASQYGIRSIPTLMIFKGGQRVDMVVGAVPKTTLASTLEKYL, the “effect of a mutation on the interaction” value is “increasing interaction”.

Variants of B6 are the subject of the next experiment. To be noted: with glgc_syny3 glgC.
Take MSATPQVSDASFKEDVLDSELPVLVDFWAPWCGPSRMVAPVVDEISQQYEGKVKVVKLNTDENPNTASQYGIRSIPTLMIFKGGQRVDMVVGAVPKTTLASTLEKYL: the “effect of a mutation on the interaction” value is on record as “increasing interaction”.

In a further experiment the parent is B7. To be noted: with rs3_syny3 rpsC.
MSATPQVSDASFKEDVLDSELPVLVDFWAPWCGPSRMVAPVVDEISQQYEGKVKVVKLNTDENPNTASQYGIRSIPTLMIFKGGQRVDMVVGAVPKTTLASTLEKYL: the “effect of a mutation on the interaction” value is recorded as “increasing interaction”.

The variants in a further experiment derive from B8. To be noted: with efg1_syny3 fusA.
As to MSATPQVSDASFKEDVLDSELPVLVDFWAPWCGPSRMVAPVVDEISQQYEGKVKVVKLNTDENPNTASQYGIRSIPTLMIFKGGQRVDMVVGAVPKTTLASTLEKYL, the “effect of a mutation on the interaction” value was “increasing interaction”.

The variants in a further experiment derive from B9. Particulars: with assy_syny3 argG.
As for MSATPQVSDASFKEDVLDSELPVLVDFWAPWCGPSRMVAPVVDEISQQYEGKVKVVKLNTDENPNTASQYGIRSIPTLMIFKGGQRVDMVVGAVPKTTLASTLEKYL, the “effect of a mutation on the interaction” value is “increasing interaction”.

Values taken from IntAct's records for PubMed 14673118.
